Results reported in US20260167959A1, “APTAZYME-BASED REGULATABLE GENE EXPRESSION SYSTEMS” (REJUVENATE BIO INC, priority 2022, published 2026).

tested on: Renilla luciferase RNA; assay: Barcoded aptazyme variant library screen: un-cleaved Renilla luciferase RNA by barcode read counts, HEK293-T cells; assay type: cell-based; conditions: un-cleaved Renilla luciferase RNA, HEK293-T cells cultured with 1 mM theophylline (ON) over without theophylline (OFF); barcode read counts, triplicate
Outline: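 Aptazyme variants (seven theophylline aptamers inserted after each T3H48 ribozyme nucleotide, 9-nt barcoded) cloned into the 3′ UTR of Renilla luciferase in psiCHECK-2; cells cultured ± theophylline, in triplicate. RNA and DNA barcodes amplified and sequenced; normalized read counts gave un-cleaved RNA fraction and ON/OFF fold-change.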

Row | Molecule | Fold change in RNA expression between the ON state and the OFF state
1 | RA116 (nucleic acid, expressed or natural sequence) DNA: GCGCGTCCTGGATTCGCGGAAACGCGTACATCCAGCTGACGAGTCCCAAATAGGGAGAATACCAGCATCGTCTTGATGCCCTTGGAAGTCTCACGAAACGCGC | 1.5 fold
2 | RA117 (nucleic acid, expressed or natural sequence) DNA: GCGCGTCCTGGATCGGAATACCAGCATCGTCTTGATGCCCTTGGAAGTCCGTCGCGGAAACGCGTACATCCAGCTGACGAGTCCCAAATAGGACGAAACGCGC | 1.5 fold
3 | RA011 (nucleic acid, expressed or natural sequence) DNA: GCGCGTCCTGGATTCGCGGAAACGCGTACATCCAGCTGACGAGTCCCGGAATACCAGCATCGTCTTGATGCCCTTGGAAGTCCGCAAATAGGACGAAACGCGC | 3.6 fold
4 | RA118 (nucleic acid, expressed or natural sequence) DNA: GCGCGTCCTGGATTCGCGGAAACGCGTACATCCAGCTGACGAGTCCCAAATAGGACGAGAGAATACCAGCATCGTCTTGATGCCCTTGGAAGTCTCAACGCGC | 1.5 fold
5 | RA119 (nucleic acid, expressed or natural sequence) DNA: GCGCGTCCTGGATTCGCGGAAACGCGTACATCCAGAGAATACCAGCATCGTCTTGATGCCCTTGGAAGTCTCTGACGAGTCCCAAATAGGACGAAACGCGC | 1.5 fold
6 | RA120 (nucleic acid, expressed or natural sequence) DNA: GCGCGTCCCCGGAATACCAGCATCGTCTTGATGCCCTTGGAAGTCCGGTGGATTCGCGGAAACGCGTACATCCAGCTGACGAGTCCCAAATAGGACGAAACGCGC | 1.5 fold
7 | RA121 (nucleic acid, expressed or natural sequence) DNA: GCGCGTCCTGGATTCGAGAATACCAGCATCGTCTTGATGCCCTTGGAAGTCTCGCGGAAACGCGTACATCCAGCTGACGAGTCCCAAATAGGACGAAACGCGC | 1.5 fold
8 | RA122 (nucleic acid, expressed or natural sequence) DNA: GCGCGTCCTGGATTCGCGGAAACGCGTACATCCAGCTGACGAGTCCCAAATAGGACGAGAATACCAGCATCGTCTTGATGCCCTTGGAAGTCTCGAAACGCGC | 1.5 fold
9 | RA123 (nucleic acid, expressed or natural sequence) DNA: GCGCGTCCTGGATTCGCGGAAACGCGTCGGAATACCAGCATCGTCTTGATGCCCTTGGAAGTCCGACATCCAGCTGACGAGTCCCAAATAGGACGAAACGCGC | 1.5 fold
10 | RA124 (nucleic acid, expressed or natural sequence) DNA: GCGCGTCCTGGATTCGCGGAAACGCGTACATCCAGCTGACGCGGAATACCAGCATCGTCTTGATGCCCTTGGAAGTCCGAGTCCCAAATAGGACGAAACGCGC | 1.5 fold
11 | RA125 (nucleic acid, expressed or natural sequence) DNA: GCGCGTCCTGGATTCGCGGAAACGCGTACATCCAGCTGACGAGTCCCGGAATACCAGCATCGTCTTGATGCCCTTGGAAGTCCGGCCAAATAGGACGAAACGCGC | 1.5 fold
12 | RA126 (nucleic acid, expressed or natural sequence) DNA: GCGCGTCCTGGATTCGCGGAAACGCGTACAAGAATACCAGCATCGTCTTGATGCCCTTGGAAGTCTTCCAGCTGACGAGTCCCAAATAGGACGAAACGCGC | 1.5 fold
13 | RA127 (nucleic acid, expressed or natural sequence) DNA: GCGCGTCCTGGATTCGCGGAAACGCGTACATCCAGCTGACGAGTCCCAAATAGGACGAAACGCGCCGGAATACCAGCATCGTCTTGATGCCCTTGGAAGTCCGGC | 1.4 fold
14 | RA012 (nucleic acid, expressed or natural sequence) DNA: GCGCGTCCTGGATTCGCGGAAACAGAATACCAGCATCGTCTTGATGCCCTTGGAAGTCTGCGTACATCCAGCTGACGAGTCCCAAATAGGACGAAACGCGC | 3.4 fold
15 | RA128 (nucleic acid, expressed or natural sequence) DNA: GCGCGTCCTGGATTCGCGGAAACGCGTAAGTGATACCAGCATCGTCTTGATGCCCTTGGCAGCACTCATCCAGCTGACGAGTCCCAAATAGGACGAAACGCGC | 1.4 fold
16 | RA129 (nucleic acid, expressed or natural sequence) DNA: GCGCGTCCTGGATTCCACTTCGGGTACATCCAGCTGACGAGTCCCAAATAGGACGAAACGCGC | 1.4 fold
17 | RA130 (nucleic acid, expressed or natural sequence) DNA: GCGCGTCCTGGATTCGCGGAAACGCGTACATCCAGCTGAGAATACCAGCATCGTCTTGATGCCCTTGGAAGTCTCGACGAGTCCCAAATAGGACGAAACGCGC | 1.4 fold
18 | RA131 (nucleic acid, expressed or natural sequence) DNA: GCGCGTCCTAGAATACCAGCATCGTCTTGATGCCCTTGGAAGTCTGGATTCGCGGAAACGCGTACATCCAGCTGACGAGTCCCAAATAGGACGAAACGCGC | 1.4 fold
19 | RA132 (nucleic acid, expressed or natural sequence) DNA: GCGCGTCCTGGATTCGCGGAATACCAGCATCGTCTTGATGCCCTTGGAAGTCCGGAAACGCGTACATCCAGCTGACGAGTCCCAAATAGGACGAAACGCGC | 1.4 fold
20 | RA133 (nucleic acid, expressed or natural sequence) DNA: GCGCGAGAATACCAGCATCGTCTTGATGCCCTTGGAAGTCTCGTCCTGGATTCGCGGAAACGCGTACATCCAGCTGACGAGTCCCAAATAGGACGAAACGCGC | 1.4 fold
21 | RA134 (nucleic acid, expressed or natural sequence) DNA: GCGCGTCCTGGATTCGCGGAAACGCGTACATCCAGCTGACGAGTCGGAATACCAGCATCGTCTTGATGCCCTTGGAAGTCCGCCCAAATAGGACGAAACGCGC | 1.4 fold
22 | RA135 (nucleic acid, expressed or natural sequence) DNA: GCGCGTCCTGGATTCGCGGAAACGAGTGATACCAGCATCGTCTTGATGCCCTTGGCAGCACTCGTACATCCAGCTGACGAGTCCCAAATAGGACGAAACGCGC | 1.4 fold
23 | RA136 (nucleic acid, expressed or natural sequence) DNA: GCGCGTCCTGGATTCGCGGAAACGCGTACATCCAGCTGACGAGTCCCAAATAGGACGAAACGGAGAATACCAGCATCGTCTTGATGCCCTTGGAAGTCTCCGC | 1.4 fold
24 | RA137 (nucleic acid, expressed or natural sequence) DNA: GCGCGTCCTGGATTCGCGGAAACGCGTACGAGAATACCAGCATCGTCTTGATGCCCTTGGAAGTCTCATCCAGCTGACGAGTCCCAAATAGGACGAAACGCGC | 1.4 fold
25 | RA013 (nucleic acid, expressed or natural sequence) DNA: GCGCGTCCTGGATTCGCGGAAACGCGTACATCCAGCTGACGAGTCCCAAATAGGACGAAACGAGAATACCAGCATCGTCTTGATGCCCTTGGAAGTCTCGC | 3.3 fold
26 | RA138 (nucleic acid, expressed or natural sequence) DNA: GCGCGGAATACCAGCATCGTCTTGATGCCCTTGGAAGTCCGCGTCCTGGATTCGCGGAAACGCGTACATCCAGCTGACGAGTCCCAAATAGGACGAAACGCGC | 1.4 fold
27 | RA139 (nucleic acid, expressed or natural sequence) DNA: GGAGAATACCAGCATCGTCTTGATGCCCTTGGAAGTCTCCGCGTCCTGGATTCGCGGAAACGCGTACATCCAGCTGACGAGTCCCAAATAGGACGAAACGCGC | 1.4 fold
28 | RA140 (nucleic acid, expressed or natural sequence) DNA: GCGCGTCCTGGATTCGCGGAAACGCGTACATCCAGCTGACGAGTCCGGAATACCAGCATCGTCTTGATGCCCTTGGAAGTCCGGCCCAAATAGGACGAAACGCGC | 1.4 fold
29 | RA141 (nucleic acid, expressed or natural sequence) DNA: GCGCGTCCTGGATTCGCGGAAACGCGTACATCCGGAATACCAGCATCGTCTTGATGCCCTTGGAAGTCCGGCCAGCTGACGAGTCCCAAATAGGACGAAACGCGC | 1.4 fold
